# Measured values reported in doi:10.1101/2021.06.29.450403 (bioRxiv, 2021).
# Legend:
# Chicken calmodulin (CaM) [1] = biological target: T1, Chicken calmodulin (CaM) (chicken, UniProt P62149 1-149); experiment: NMR titration
# [2] = biological target: recombinant rAQP4ct protein (complete cytosolic C-terminal domain of human AQP4, residues 254-323) (human, UniProt P55087-1 254-323); experiment: steady-state intrinsic Trp fluorescence
# Chicken calmodulin (CaM) [3] = biological target: T1, Chicken calmodulin (CaM); experiment: steady-state intrinsic Trp fluorescence
binder,measurement,setting,value
Ac-VEFKRRFKEAFSKAAQQTKGSYMEV-NH2 [human AQP4ct synthetic peptide (residues 256-280)],"apparent Kd, C-lobe of CaM (first binding event)",Chicken calmodulin (CaM) [1],3.6 µM
same,"apparent Kd, N-lobe of CaM (second binding event)",Chicken calmodulin (CaM) [1],114 µM
same,stoichiometry N,Chicken calmodulin (CaM) [1],2
CaM bound AQP4nt-W30A peptide (complex) chain 1: […] chain 2: PTARRWGKSGPLSTRENIMVAFKGVAT,binding result,[2],binds
"Ac-TARRWGKSGPLSTRENIMVAFKGVWT-NH2 [human AQP4nt synthetic peptide (residues 6-31, two Cys modified to Ser)]",Kd,Chicken calmodulin (CaM) [1],3.4 µM
same,stoichiometry N,Chicken calmodulin (CaM) [1],1
PTARRWGKSGPLSTRENIMVAFKGVAT [recombinant rAQP4ntW30A peptide],binding result,Chicken calmodulin (CaM) [3],binds
PTARRWGKSGPLSTR [recombinant rAQP4nt6-19 truncated peptide],binding result,Chicken calmodulin (CaM) [1],binds
